Measurements published in PMC3020594.

How the values were obtained:
purified protein [1] = substrate: Nc1ncn([C@H]2C[C@H](O)[C@@H](CO)O2)c(=O)n1; assay: purified protein; assay type: biochemical, Homo sapiens; conditions: zinc active site
purified protein [2] = substrate: Nc1ccn([C@H]2C[C@H](O)[C@@H](CO)O2)c(=O)n1; assay: purified protein; conditions: zinc active site

B1: human cytidine deaminase (CDA) (Homo sapiens; Y33G) (protein)
chain: MAQKRPACTLKPECVQQLLVCSQEAKKSAYCPGSHFPVGAALLTQEGRIFKGCNIENACYPLGICAERTAIQKAVSEGYKDFRAIAIASDMQDDFISPCGACRQVMREFGTNWPVYMTKPDGTYIVMTVQELLPSSFGPEDLQKTQ
For B1, the Km (purified protein [1]) was 349.0 µM, the Vmax (purified protein [1]) was 0.174 µmol/min/mg and the Km (purified protein [2]) was 47.6 µM. The Vmax (purified protein [2]) was 0.127 µmol/min/mg.
